Values quoted from earlier work as cited in publication PMC5431918 (Scientific Reports, 2017).

Text: As PAC1, VPAC1 and VPAC2 mRNAs were detected in a rat insulinoma cell line with PAC1 binding prevailing over that of VPAC1 and VPAC2[23], the PAC1 receptor seemed to be a promising alternative for targeting insulinomas. The natural mammalian ligands at the PAC1 receptor are PACAP38 and the truncated form PACAP27. They bind to PAC1, ...

| Substance | Stability in plasma |
| --- | --- |
| PACAP27: truncated form of PACAP38; non-selective PAC1/VPAC1/VPAC2 ligand | unstable in plasma |
| PACAP38: natural mammalian ligand at the PAC1 receptor; non-selective PAC1/VPAC1/VPAC2 ligand | unstable in plasma |
